Results published in paper PMC9700395.

Target: Thrombin (UniProt P00734;P00734 328-363;364-622)
Assay: ion current rectification nanopipette aptasensor

B1: N protein aptamer (ssDNA)
DNA: GCTGGATGTCGCTTACGACAATATTCCTTAGGGGCACCGCTACATTGACACATCCAGC
modifications: 5'-NH2
B1: no binding.
